Results as given in publication PMC11121168.

Tested on: CC[C@H](NC(=O)OC(C)(C)C)C(=O)N[C@H](C(=O)N[C@@H](CC(C)C)C(=O)N[C@@H](CCC(N)=O)C(=O)Nc1ccc2c(C)cc(=O)oc2c1)C(C)(C)C
Assay: purified protein, by the assay type
Conditions: pH 7.2; 37.0 °C

C-terminally His-tagged SARS-CoV-2 Mpro (Severe acute respiratory syndrome coronavirus 2)
Km: 85.2 ± 5.6 µmol/L
